Measured values reported in patent US20200055920A1 (published 2020).
Like-named read-outs stand apart in the source and are kept apart here. Blank lines part the entries; values can stand above or below the molecule they belong to.

Experiments:
Assay in all cases: Biacore SPR; receptor-Fc captured by anti-Fc antibody, ligand injected
TGFβ1 = biological target: T1, TGFβ1 (UniProt P01137 279-390)
T1 construct: also called TGF-beta1
Experimental: (§1) Ligands were injected and allowed to flow over the captured receptor protein.

TGFβ2 = biological target: T2, TGFβ2 (UniProt P61812 303-414)
T2 construct: also called TGF-beta2
T2 sequence (looked up): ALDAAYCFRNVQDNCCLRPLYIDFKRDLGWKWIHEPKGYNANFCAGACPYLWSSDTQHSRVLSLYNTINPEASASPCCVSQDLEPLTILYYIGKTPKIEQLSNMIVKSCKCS
Experimental: as §1

TGFβ3 = biological target: T3, TGFβ3 (UniProt P10600 301-412)
T3 construct: also called TGF-beta3
T3 sequence (looked up): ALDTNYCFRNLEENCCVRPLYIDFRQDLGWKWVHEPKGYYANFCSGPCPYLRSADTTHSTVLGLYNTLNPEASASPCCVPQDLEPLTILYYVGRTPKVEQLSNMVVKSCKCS
Experimental: as §1

BMP10 [1] = biological target: T4, BMP10 (UniProt O95393 317-424)
T4 sequence (looked up): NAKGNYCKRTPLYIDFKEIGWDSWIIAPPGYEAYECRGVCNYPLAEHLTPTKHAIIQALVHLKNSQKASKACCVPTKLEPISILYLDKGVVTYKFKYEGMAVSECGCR

BMP9 = biological target: T5, BMP9 (UniProt Q9UK05 320-429)
T5 construct: also called GDF2
T5 sequence (looked up): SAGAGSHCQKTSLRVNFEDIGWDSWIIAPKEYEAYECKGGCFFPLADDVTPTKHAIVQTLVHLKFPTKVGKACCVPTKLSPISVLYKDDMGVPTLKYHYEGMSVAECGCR
Experimental: as §1

BMP5 = biological target: T6, BMP5 (UniProt P22003 317-454, limits assumed)
T6 sequence (looked up): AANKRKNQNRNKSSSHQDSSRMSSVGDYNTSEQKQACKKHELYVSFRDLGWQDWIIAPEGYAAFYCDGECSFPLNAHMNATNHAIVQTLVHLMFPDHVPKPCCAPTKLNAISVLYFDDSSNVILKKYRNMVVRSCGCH

Activin A = biological target: T7, Activin A (UniProt P08476 311-426)
T7 construct: also called βAβA
T7 sequence (looked up): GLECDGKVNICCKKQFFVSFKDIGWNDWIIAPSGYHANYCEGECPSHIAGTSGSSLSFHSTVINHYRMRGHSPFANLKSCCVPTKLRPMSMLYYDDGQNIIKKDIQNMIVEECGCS
Experimental: as §1

Activin B = biological target: T8, Activin B (UniProt P09529 293-407)
T8 construct: also called βBβB
T8 sequence (looked up): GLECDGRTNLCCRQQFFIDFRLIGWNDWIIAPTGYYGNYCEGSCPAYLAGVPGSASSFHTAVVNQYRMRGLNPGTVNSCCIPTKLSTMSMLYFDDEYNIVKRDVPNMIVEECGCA
Experimental: as §1

GDF8 = biological target: T9, GDF8 (UniProt O14793 267-375)
T9 construct: also called myostatin; growth and differentiation factor-8
T9 sequence (looked up): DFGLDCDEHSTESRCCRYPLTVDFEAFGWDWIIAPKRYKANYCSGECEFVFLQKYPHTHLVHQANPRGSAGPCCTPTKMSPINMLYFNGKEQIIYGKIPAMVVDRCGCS
Experimental: as §1

GDF11 = biological target: T10, GDF11 (UniProt O95390 299-407)
T10 construct: also called BMP11
T10 sequence (looked up): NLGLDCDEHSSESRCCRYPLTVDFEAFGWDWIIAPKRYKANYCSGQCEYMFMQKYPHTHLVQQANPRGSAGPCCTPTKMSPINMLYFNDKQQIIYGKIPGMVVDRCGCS
Experimental: as §1

BMP6 = biological target: T11, BMP6 (UniProt P22004 382-513, limits assumed)
T11 sequence (looked up): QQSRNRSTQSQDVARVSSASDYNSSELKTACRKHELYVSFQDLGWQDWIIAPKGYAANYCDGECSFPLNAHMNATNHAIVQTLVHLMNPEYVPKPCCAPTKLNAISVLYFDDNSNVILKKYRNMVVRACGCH
Experimental: as §1

BMP10 [2] = biological target: T4, BMP10; remark: listed apart in the source
Experimental: as §1

GDF3 = biological target: T12, GDF3 (UniProt Q9NR23 251-364)
T12 construct: also called VGR2
T12 sequence (looked up): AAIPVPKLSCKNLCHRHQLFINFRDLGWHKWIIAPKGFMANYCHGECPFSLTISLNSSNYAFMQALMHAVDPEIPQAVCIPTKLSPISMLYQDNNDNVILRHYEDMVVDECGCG
Experimental: as §1

T1 sequence (P01137 279-390 limits assumed): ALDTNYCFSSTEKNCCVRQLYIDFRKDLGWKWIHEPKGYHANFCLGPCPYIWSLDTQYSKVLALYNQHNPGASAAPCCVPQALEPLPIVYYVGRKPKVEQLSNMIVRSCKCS

Kd (TGFβ1): 0.025 nM | koff (TGFβ1): 0.0011 s⁻¹ | kon (TGFβ1): 4.2e+07 M⁻¹ s⁻¹ | Kd (TGFβ2): > 44 nM | Kd (TGFβ3): 0.099 nM | koff (TGFβ3): 0.0059 s⁻¹ | kon (TGFβ3): 5.9e+07 M⁻¹ s⁻¹
Molecule: TGFβRII-Fc homodimer (Fc fusion)

Kd (BMP10 [1]): 0.006 nM | koff (BMP10 [1]): 0.00011 s⁻¹ | kon (BMP10 [1]): 1.7e+07 M⁻¹ s⁻¹ | Kd (BMP9): 0.016 nM | koff (BMP9): 0.00013 s⁻¹ | kon (BMP9): 7.9e+06 M⁻¹ s⁻¹
Molecule: ALK1-Fc homodimer (Fc fusion)

Kd (BMP5): 1.1 nM | koff (BMP5): 0.0045 s⁻¹ | kon (BMP5): 4e+06 M⁻¹ s⁻¹ | Kd (BMP10 [1]): 0.086 nM | koff (BMP10 [1]): 0.0025 s⁻¹ | kon (BMP10 [1]): 2.9e+07 M⁻¹ s⁻¹ | Kd (Activin A): 0.045 nM | koff (Activin A): 0.00062 s⁻¹ | kon (Activin A): 1.4e+07 M⁻¹ s⁻¹ | Kd (Activin B): 0.025 nM | koff (Activin B): 0.0002 s⁻¹ | kon (Activin B): 7.9e+06 M⁻¹ s⁻¹ | Kd (GDF8): 0.099 nM | koff (GDF8): 0.0014 s⁻¹ | kon (GDF8): 1.4e+07 M⁻¹ s⁻¹ | Kd (GDF11): 0.028 nM | koff (GDF11): 0.00072 s⁻¹ | kon (GDF11): 2.6e+07 M⁻¹ s⁻¹
Molecule: ActRIIA-Fc homodimer (Fc fusion)

Kd (Activin A): 0.099 nM | koff (Activin A): 0.003 s⁻¹ | kon (Activin A): 3e+07 M⁻¹ s⁻¹ | Kd (Activin B): 0.12 nM | koff (Activin B): 0.00042 s⁻¹ | kon (Activin B): 3.5e+06 M⁻¹ s⁻¹ | Kd (BMP6): 0.69 nM | koff (BMP6): 0.029 s⁻¹ | kon (BMP6): 4.2e+07 M⁻¹ s⁻¹ | binding result (BMP9): no binding | Kd (BMP10 [2]): 0.12 nM | koff (BMP10 [2]): 0.0097 s⁻¹ | kon (BMP10 [2]): 8e+07 M⁻¹ s⁻¹ | Kd (GDF3): 12 nM | koff (GDF3): 0.013 s⁻¹ | kon (GDF3): 1.1e+06 M⁻¹ s⁻¹ | Kd (GDF8): 0.29 nM | koff (GDF8): 0.001 s⁻¹ | kon (GDF8): 3.5e+06 M⁻¹ s⁻¹ | Kd (GDF11): 0.02 nM | koff (GDF11): 0.00072 s⁻¹ | kon (GDF11): 3.6e+07 M⁻¹ s⁻¹
B1: single-arm ActRIIB-Fc heterodimeric complex (Fc fusion)
chain 1: GRGEAETRECIYYNANWELERTNQSGLERCEGEQDKRLHCYASWRNSSGTIELVKKGCWLDDFNCYDRQECVATEENPQVYFCCCEGNFCNERFTHLPEAGGPEVTYEPPPTAPTGGGTHTCPPCPAPELLGGPSVFLFPPKPKDTLMISRTPEVTCVVVDVSHEDPEVKFNWYVDGVEVHNAKTKPREEQYNSTYRVVSVLTVLHQDWLNGKEYKCKVSNKALPAPIEKTISKAKGQPREPQVYTLPPSRKEMTKNQVSLTCLVKGFYPSDIAVEWESNGQPENNYKTTPPVLKSDGSFFLYSKLTVDKSRWQQGNVFSCSVMHEALHNHYTQKSLSLSPGK
chain 2: SNTKVDKRVTGGGTHTCPPCPAPELLGGPSVFLFPPKPKDTLMISRTPEVTCVVVDVSHEDPEVKFNWYVDGVEVHNAKTKPREEQYNSTYRVVSVLTVLHQDWLNGKEYKCKVSNKALPAPIEKTISKAKGQPREPQVYTLPPSREEMTKNQVSLTCLVKGFYPSDIAVEWESNGQPENNYDTTPPVLDSDGSFFLYSDLTVDKSRWQQGNVFSCSVMHEALHNHYTQKSLSLSPGK
notes: The C-terminal lysine may optionally be removed; also called ActRIIB-Fc:Fc heterodimer; single-arm ActRIIB-Fc:Fc
